{
  "source": "patent US20160229903",
  "key": {"[1]": {"system": "VWF-052 (VWF D′D3-Fc with non-cleavable 48 amino acid long GS linker)", "sequence (chain, as listed by the source)": "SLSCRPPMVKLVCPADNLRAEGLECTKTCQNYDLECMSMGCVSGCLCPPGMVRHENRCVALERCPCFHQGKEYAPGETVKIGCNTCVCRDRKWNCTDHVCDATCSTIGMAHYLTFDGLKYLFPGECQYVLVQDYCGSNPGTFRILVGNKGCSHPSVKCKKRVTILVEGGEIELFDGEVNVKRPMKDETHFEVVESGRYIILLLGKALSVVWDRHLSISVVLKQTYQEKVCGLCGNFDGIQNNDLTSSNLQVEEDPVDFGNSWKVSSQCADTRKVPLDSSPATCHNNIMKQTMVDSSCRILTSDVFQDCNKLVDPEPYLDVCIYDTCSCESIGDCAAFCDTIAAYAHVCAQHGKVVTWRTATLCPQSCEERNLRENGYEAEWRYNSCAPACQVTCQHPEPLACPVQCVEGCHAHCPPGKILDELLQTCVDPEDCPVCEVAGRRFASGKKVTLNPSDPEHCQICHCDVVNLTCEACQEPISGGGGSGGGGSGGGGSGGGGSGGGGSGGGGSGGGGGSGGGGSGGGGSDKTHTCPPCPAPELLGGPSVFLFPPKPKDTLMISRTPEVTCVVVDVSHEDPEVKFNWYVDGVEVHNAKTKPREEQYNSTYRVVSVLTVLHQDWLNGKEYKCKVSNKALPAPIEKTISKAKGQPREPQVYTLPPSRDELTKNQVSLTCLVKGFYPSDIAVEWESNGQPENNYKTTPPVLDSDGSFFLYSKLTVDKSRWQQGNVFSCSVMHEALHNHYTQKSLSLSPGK"}, "[2]": {"system": "VWF-055 (VWF D′D3-Fc with 34 amino acid long little a2 linker)", "sequence (chain, as listed by the source)": "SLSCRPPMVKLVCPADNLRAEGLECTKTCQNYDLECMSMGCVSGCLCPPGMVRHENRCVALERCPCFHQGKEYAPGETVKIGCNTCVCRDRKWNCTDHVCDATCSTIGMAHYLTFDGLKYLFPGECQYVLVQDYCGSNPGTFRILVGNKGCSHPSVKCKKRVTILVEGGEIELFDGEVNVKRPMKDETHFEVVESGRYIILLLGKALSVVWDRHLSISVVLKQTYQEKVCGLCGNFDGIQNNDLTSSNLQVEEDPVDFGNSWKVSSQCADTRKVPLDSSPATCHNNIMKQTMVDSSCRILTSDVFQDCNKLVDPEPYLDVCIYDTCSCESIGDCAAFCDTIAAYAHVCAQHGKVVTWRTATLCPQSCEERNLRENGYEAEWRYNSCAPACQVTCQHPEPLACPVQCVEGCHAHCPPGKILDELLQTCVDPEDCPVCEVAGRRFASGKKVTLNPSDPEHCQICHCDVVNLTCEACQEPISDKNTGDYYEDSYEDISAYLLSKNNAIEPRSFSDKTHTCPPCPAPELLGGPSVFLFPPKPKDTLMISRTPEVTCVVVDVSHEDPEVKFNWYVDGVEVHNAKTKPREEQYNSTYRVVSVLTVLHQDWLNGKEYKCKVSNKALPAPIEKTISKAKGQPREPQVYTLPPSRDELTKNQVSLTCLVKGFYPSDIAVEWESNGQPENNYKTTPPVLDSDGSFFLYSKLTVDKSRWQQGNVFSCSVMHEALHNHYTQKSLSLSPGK"}},
  "data": [
    {"substance": "human alpha-thrombin", "values": [
      {"measurement": "thrombin cleavage (Biacore, release of D′D3 from captured construct)", "setting": "[1]", "value": "as expected is not cleaved by thrombin"},
      {"measurement": "thrombin cleavage (Biacore, release of D′D3 from captured construct)", "setting": "[2]", "value": "displayed similar thrombin cleavage as VWF-039 construct"}
    ]}
  ]
}
